Data on 94 variants can be found in the supplement of paper PMC10567573.

First the molecules themselves.
B1: MED27 (parent)
chain: YNENVYTEDGKLDIWSKSNYQVFQ
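Also: lentivirally expressed fusions sorted by FACS into six bins by GFP to DsRed ratio, PSI derived from sequencing read proportions per bin multiplied by bin number.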

In the data set the parent is B1. As to the kind of experiment: protein stability index of a GFP-peptide fusion (GPS, HEK-293T) (PSI 1-6); higher = more stable. Particulars: c terminus: a fixed tail appended.
For the variant YNENVYTEDGPLDIWSKSNYQVFQ [K11P], the protein stability index stood at 2.13. In the case of YNENVYTEDGYLDIWSKSNYQVFQ [K11Y] it was 1.94; in that of YNENVYTEDGNLDIWSKSNYQVFQ [K11N], 2.56; in that of YNENVYTEDGMLDIWSKSNYQVFQ [K11M], 2.32. For the variant YNENVYTEDGLLDIWSKSNYQVFQ [K11L], the protein stability index was 1.59. With YNENVYTEDGILDIWSKSNYQVFQ [K11I], the protein stability index is 2.71. In the case of YNENVYTEDGWLDIWSKSNYQVFQ [K11W] it was 2.

In the case of YNENVYTEDGTLDIWSKSNYQVFQ [K11T], the protein stability index is 2.43. On to YNENVYTEDGSLDIWSKSNYQVFQ [K11S], for which the protein stability index is 2.45. For the variant YNENVYTEDGQLDIWSKSNYQVFQ [K11Q], the protein stability index was 2.38. In the case of YNENVYTEDGGLDIWSKSNYQVFQ [K11G] it was 2.22; in that of YNENVYTEDGRLDIWSKSNYQVFQ [K11R], 1.96. As for YNENVYTEDGHLDIWSKSNYQVFQ [K11H], the protein stability index worked out at 2.2. The same measure for YNENVYTEDGVLDIWSKSNYQVFQ [K11V]: 2.04; for YNENVYTEDGKLDIWSKSNYDVFQ [Q21D]: 2.41; for YNENVYTEDGKLDIWSKSNYCVFQ [Q21C]: 2.01. As to YNENVYTEDGKLDIWSKSNYAVFQ [Q21A], the protein stability index came out at 2.46. Turning to YNENVYTEDGKLDIWEKSNYQVFQ [S16E], the protein stability index was 2.6. In the case of YNENVYTEDGKLDIWPKSNYQVFQ [S16P], the protein stability index came to 2.05.

Consider YNENVYTEDGKLDIWAKSNYQVFQ [S16A], for which the protein stability index is 2.45. In the case of YNENVYTEDGKLDIWYKSNYQVFQ [S16Y] it was 2.02; in that of YNENVYTEDGKLDIWDKSNYQVFQ [S16D], 3.25; in that of YNENVYTEDGKLDIWFKSNYQVFQ [S16F], 2.87.

Consider YNENVYTEDGKLDIWIKSNYQVFQ [S16I], for which the protein stability index stood at 1.98. Regarding YNENVYTEDGKLDIWNKSNYQVFQ [S16N], the protein stability index was determined as 2.12. In the case of YNENVYTEDGKLDIWMKSNYQVFQ [S16M] it was 1.81; in that of YNENVYTEDGKLDIWHKSNYQVFQ [S16H], 1.93. The same measure for YNENVYTEDGKLDIWCKSNYQVFQ [S16C]: 2.06; for YNENVYTEDGKLDIWVKSNYQVFQ [S16V]: 2.06.

With YNENVYTEDGKLDIWRKSNYQVFQ [S16R], the protein stability index is 1.78. Regarding YNENVYTEDGKLDIWTKSNYQVFQ [S16T], the protein stability index is 2.38. In the case of YNENVYTEDGKLDIWQKSNYQVFQ [S16Q] it was 2.26; in that of YNENVYTEDGKLDIWKKSNYQVFQ [S16K], 2.04; in that of YNENVYTEDGKLDIWWKSNYQVFQ [S16W], 1.91. In the case of YNENVYTEDGKLDIWLKSNYQVFQ [S16L], the protein stability index is 1.82. For the variant YNENVYTEDGKLDIWGKSNYQVFQ [S16G], the protein stability index was 2.33.

Regarding YNENVYTEDGKLDIDSKSNYQVFQ [W15D], the protein stability index was found to be 4.42. The same measure for YNENVYTEDGKLDIKSKSNYQVFQ [W15K]: 4.03; for YNENVYTEDGKLDIYSKSNYQVFQ [W15Y]: 3.19; for YNENVYTEDGKLDIQSKSNYQVFQ [W15Q]: 3.89. The same measure for YNENVYTEDGKLDIMSKSNYQVFQ [W15M]: 3.3. For YNENVYTEDGKLDIESKSNYQVFQ [W15E], the protein stability index came out at 4.12. For YNENVYTEDGKLDIHSKSNYQVFQ [W15H], the protein stability index is 3.85. In the case of YNENVYTEDGKLDIASKSNYQVFQ [W15A] it was 4.13; in that of YNENVYTEDGKLDIRSKSNYQVFQ [W15R], 3.64; in that of YNENVYTEDGKLDISSKSNYQVFQ [W15S], 3.83.

Regarding YNENVYTEDGKLDITSKSNYQVFQ [W15T], the protein stability index was 3.7. In the case of YNENVYTEDGKLDIGSKSNYQVFQ [W15G] it was 4.19; in that of YNENVYTEDGKLDIPSKSNYQVFQ [W15P], 3.74; in that of YNENVYTEDGKLDIISKSNYQVFQ [W15I], 3.31.

On to YNENVYTEDGKLDIFSKSNYQVFQ [W15F], for which the protein stability index turned out to be 2.81. For YNENVYTEDGKLDILSKSNYQVFQ [W15L], the protein stability index worked out at 3.32. The same measure for YNENVYTEDGKLDINSKSNYQVFQ [W15N]: 4.08.

As for YNENVYTEDGKLDICSKSNYQVFQ [W15C], the protein stability index amounted to 3.74. The same measure for YNENVYTEDGKLDIVSKSNYQVFQ [W15V]: 3.5. In the case of YNENVYTEDGKLWIWSKSNYQVFQ [D13W], the protein stability index came to 2.46. In the case of YNENVYTEDGKLHIWSKSNYQVFQ [D13H] it was 2.44. The same measure for YNENVYTEDGKLCIWSKSNYQVFQ [D13C]: 2.09; for YNENVYTEDGKLIIWSKSNYQVFQ [D13I]: 2.06. The same measure for YNENVYTEDGKLEIWSKSNYQVFQ [D13E]: 2.36; for YNENVYTEDGKLKIWSKSNYQVFQ [D13K]: 2.55; for YNENVYTEDGKLLIWSKSNYQVFQ [D13L]: 1.69. On to YNENVYTEDGKLMIWSKSNYQVFQ [D13M], for which the protein stability index was determined as 1.79.

YNENVYTEDGKLTIWSKSNYQVFQ [D13T]: the protein stability index is 1.63. The same measure for YNENVYTEDGKLGIWSKSNYQVFQ [D13G]: 1.88. For YNENVYTEDGKLSIWSKSNYQVFQ [D13S], the protein stability index turned out to be 1.92. In the case of YNENVYTEDGKLYIWSKSNYQVFQ [D13Y] it was 2.04. In the case of YNENVYTEDGKLAIWSKSNYQVFQ [D13A], the protein stability index stood at 2.12. As for YNENVYTEDGKLRIWSKSNYQVFQ [D13R], the protein stability index amounted to 2.32. On to YNENVYTEDGKLQIWSKSNYQVFQ [D13Q], for which the protein stability index was 2.05.

As to YNENVYTEDGKLVIWSKSNYQVFQ [D13V], the protein stability index is 3. In the case of YNENVYTEDGKLFIWSKSNYQVFQ [D13F] it was 1.84; in that of YNENVYTEDGKLPIWSKSNYQVFQ [D13P], 2.81.

YNENVYTEDGKLNIWSKSNYQVFQ [D13N]: the protein stability index was determined as 1.76. As for YNENVYTEDGKSDIWSKSNYQVFQ [L12S], the protein stability index stood at 2.37. In the case of YNENVYTEDGKIDIWSKSNYQVFQ [L12I] it was 2.23; in that of YNENVYTEDGKYDIWSKSNYQVFQ [L12Y], 1.93; in that of YNENVYTEDGKHDIWSKSNYQVFQ [L12H], 2.07.

Take YNENVYTEDGKQDIWSKSNYQVFQ [L12Q]: the protein stability index came out at 3.1. As for YNENVYTEDGKGDIWSKSNYQVFQ [L12G], the protein stability index was determined as 2.63. In the case of YNENVYTEDGKWDIWSKSNYQVFQ [L12W] it was 2.2; in that of YNENVYTEDGKDDIWSKSNYQVFQ [L12D], 3.34; in that of YNENVYTEDGKMDIWSKSNYQVFQ [L12M], 2.07. On to YNENVYTEDGKCDIWSKSNYQVFQ [L12C], for which the protein stability index came to 2.33. For the variant YNENVYTEDGKPDIWSKSNYQVFQ [L12P], the protein stability index worked out at 2.39.

For YNENVYTEDGKRDIWSKSNYQVFQ [L12R], the protein stability index is 2.01.

YNENVYTEDGKNDIWSKSNYQVFQ [L12N]: the protein stability index is 2.37.

For the variant YNENVYTEDGKADIWSKSNYQVFQ [L12A], the protein stability index came to 2.5. In the case of YNENVYTEDGKTDIWSKSNYQVFQ [L12T] it was 2.21. In the case of YNENVYTEDGKEDIWSKSNYQVFQ [L12E] it was 3.14.

YNENVYTEDGKFDIWSKSNYQVFQ [L12F]: the protein stability index came out at 2.19. Regarding YNENVYTEDGKVDIWSKSNYQVFQ [L12V], the protein stability index amounted to 2.58. YNENVYTEDGKKDIWSKSNYQVFQ [L12K]: the protein stability index is 2.33. For the variant YNENVYTEDGKLDIWSKTNYQVFQ [S18T], the protein stability index amounted to 2.62.
